Measured values as given in US6395275 (Scripps Research, dated 2002).
Residue numbers refer to the chain shown, from its start. Like-named read-outs stand apart in the source and are kept apart here.

Assays:
[1] = target: T1, recombinant gp120 of HIV-1 strain IIIb (HIV-1 strain IIIb, UniProt P04578 33-511); assay: SPR BIAcore, gp120 on chip
T1 construct: domain: gp120; also called IIIb-derived gp120; gp 120 (IIIB strain)

[2] = target: gp120 glycoprotein of HIV-1 strain MN (HIV-1 strain MN, UniProt P05877 32-513, limits assumed); assay: cell-based or functional assay
[3] = target: T1, recombinant gp120 of HIV-1 strain IIIb; assay: cell-based or functional assay
[4] = target: T1, recombinant gp120 of HIV-1 strain IIIb; assay: SPR BIAcore, gp120 on chip; remark: listed apart in the source
Description: In the assay, the gp120 glycoprotein, isolated from both MN (AgMed, Cambridge, Mass.) and IIIb (American Bio-Technologies) strains of HIV-1 were coated onto gold chips. […] As the mass of the gold chips increases due to the binding of the Fabs to the ligand, the refractive index of the chips increases indicating a coordinate increase in the increase of the mass. Measurements of the "on" rate are made in addition to the "off" rates, the latter of which occurs as the Fabs begin to dissociate from the ligand and the mass coordinately decreases, thereby allowing a measurement of the change of the refractive index. Briefly, the sensor chip was activated for immobilization with N-hydroxysuccinimide an N-ethyl-N'-(3-diethyl aminopropyl) carbodiimide. The proteins, MN-derived or IIIb-derived gp120, were coupled to the surface by injection of 50 ul of a 50 ug/ml sample. Excess activated esters were quenched with 15 ul ethanolamine, 1 M pH 8.5. Typically, 4000 resonance units were immobilized. Binding of Fab fragments to immobilized gp120 was studied by injection of Fab in a range of concentrations (0.5 to 10 ug/ml) at a flow rate of 5 ul/minute. The association was monitored as the increase in resonance units per unit time. Dissociation measurements were acquired following the end of the association phase but with a flow rate of 50 ul/minute. […]

[5] = target: T1, recombinant gp120 of HIV-1 strain IIIb; assay: SPR BIAcore, gp120 on chip; remark: listed apart in the source
Description: (§1) As the mass of the gold chips increases due to the binding of the Fabs to the ligand, the refractive index of the chips increases indicating a coordinate increase in the increase of the mass. Measurements of the "on" rate are made in addition to the "off" rates, the latter of which occurs as the Fabs begin to dissociate from the ligand and the mass coordinately decreases, thereby allowing a measurement of the change of the refractive index. Briefly, the sensor chip was activated for immobilization with N-hydroxysuccinimide an N-ethyl-N'-(3-diethyl aminopropyl) carbodiimide. The proteins, MN-derived or IIIb-derived gp120, were coupled to the surface by injection of 50 ul of a 50 ug/ml sample. Excess activated esters were quenched with 15 ul ethanolamine, 1 M pH 8.5. Typically, 4000 resonance units were immobilized. Binding of Fab fragments to immobilized gp120 was studied by injection of Fab in a range of concentrations (0.5 to 10 ug/ml) at a flow rate of 5 ul/minute. The association was monitored as the increase in resonance units per unit time. Dissociation measurements were acquired following the end of the association phase but with a flow rate of 50 ul/minute. The binding surface was regenerated with HCl, 1M NaCl, pH 3 and remained active for 20–40 measurements. […] Equilibrium association and dissociation constants were deduced from the rate constants.
The soluble A–D series Fabs were then analyzed for binding affinity to gp120 strain IIIB.

[6] = target: T1, recombinant gp120 of HIV-1 strain IIIb; assay: SPR BIAcore, gp120 on chip (summary table)
[7] = target: T1, recombinant gp120 of HIV-1 strain IIIb; assay: SPR BIAcore, gp120 on chip; remark: listed apart in the source
Protocol: Briefly, the sensor chip was activated for immobilization with N-hydroxysuccinimide an N-ethyl-N'-(3-diethyl aminopropyl) carbodiimide. The proteins, MN-derived or IIIb-derived gp120, were coupled to the surface by injection of 50 ul of a 50 ug/ml sample. Excess activated esters were quenched with 15 ul ethanolamine, 1 M pH 8.5. Typically, 4000 resonance units were immobilized. Binding of Fab fragments to immobilized gp120 was studied by injection of Fab in a range of concentrations (0.5 to 10 ug/ml) at a flow rate of 5 ul/minute. The association was monitored as the increase in resonance units per unit time. Dissociation measurements were acquired following the end of the association phase but with a flow rate of 50 ul/minute. The binding surface was regenerated with HCl, 1M NaCl, pH 3 and remained active for 20–40 measurements. […] Equilibrium association and dissociation constants were deduced from the rate constants.

[8] = target: T1, recombinant gp120 of HIV-1 strain IIIb; assay: SPR BIAcore, gp120 on chip; remark: listed apart in the source
Description: as §1

[9] = target: T1, recombinant gp120 of HIV-1 strain IIIb; assay: SPR BIAcore, gp120 on chip; remark: listed apart in the source
[10] = target: T1, recombinant gp120 of HIV-1 strain IIIb; assay: SPR BIAcore, gp120 on chip; remark: listed apart in the source
Description: as §1
(§2) The soluble composite Fabs were then analyzed for binding affinity to gp120 strain IIIB.

[11] = target: T1, recombinant gp120 of HIV-1 strain IIIb; assay: calculated as ln2/Koff from SPR
Protocol: as §2
In addition, the half-life of the binding of the gp120-reactive Fabs to gp120 can be obtained by dividing the natural log ($\ln_2$) with the $Koff$ rate constant, thereby obtaining a further parameter of the nature of the interaction.

B1: Fab 3b3 (Fab, V domains shown)
VH: LEQSGAEVKKPGASVKVSCQASGYRFSNFTVHWVRQAPGQRFEWMGWINPYNGNKEFSAKFQDRVTFTADTSANTAYMELRSLRSADTAVYYCARVGEWGWDDSPQDNYYMDVWGKGTTVIVSS
VL: ELTQSPGTLSLSPGERATFSCRSSHSIRSRRVAWYQHKPGQAPRLVIHGVSNRASGISDRFSGSGSGTDFTLTITRVEPEDFALYYCQVYGASSYTFGQGTKLERKR
Ka [1]: 1.3e+09 M⁻¹
IC50 (M^-1), syncytium neutralization assay, HIV-1 MN on CEM-SS cells [2]: 9.02e+09 M⁻¹
Neutralization Titer (ng/ml), syncytium assay, HIV-1 MN [2]: 5.5 ng/mL
IC50 (M), syncytium neutralization assay, HIV-1 IIIb [3]: 9.4e-10 M
Neutralization titer (ng/ml), syncytium assay, HIV-1 IIIb [3]: 47 ng/mL
Kd [4]: 0.77 nM

B2: Fab 3b1 (Fab, V domains shown)
VH: B1 VH with V31L, H32M, E98Q, G100N
VL: B1 VL
IC50 (M^-1), syncytium neutralization assay, HIV-1 MN on CEM-SS cells [2]: 5.42e+09 M⁻¹
Neutralization Titer (ng/ml), syncytium assay, HIV-1 MN [2]: 9.2 ng/mL
IC50 (M), syncytium neutralization assay, HIV-1 IIIb [3]: 4.4e-10 M
Neutralization titer (ng/ml), syncytium assay, HIV-1 IIIb [3]: 22 ng/mL

B3: Fab 3b9 (Fab, V domains shown)
VH: B1 VH with E98P, G100R, T119I
VL: B1 VL
IC50 (M^-1), syncytium neutralization assay, HIV-1 MN on CEM-SS cells [2]: 6.4e+09 M⁻¹
Neutralization Titer (ng/ml), syncytium assay, HIV-1 MN [2]: 7.8 ng/mL

B4: Fab A (Fab, V domains shown)
VH: B1 VH
VL: B1 VL with S26K, I27E, R28F, S29G
Fold Increase of Mutant Kd Compared to MT4 Kd [5]: 1.3 fold
Kd [5]: 4.7 nM

B5: Fab B (Fab, V domains shown)
VH: B1 VH
VL: B1 VL with S26T, I27V, R28Y, S29R, R30D
Fold Increase of Mutant Kd Compared to MT4 Kd [5]: 5.7 fold
Kd [5]: 1.1 nM

B6: Fab D (Fab, V domains shown)
VH: B1 VH
VL: B1 VL with S26Q, I27L, R28D, S29G, R30S
Fold Increase of Mutant Kd Compared to MT4 Kd [5]: 28.6 fold
Kd [5]: 0.22 nM
Kd [6]: 0.22 nM

B7: Fab H4H1-1 (Fab, V domains shown)
VH: B1 VH with N28H, E98P, W99Y, G100S
VL: B1 VL
Fold Increase of Mutant Kd Compared to MT4 Kd [7]: 3.7 fold
Kd [7]: 1.7 nM

B8: Fab H4H1-3 (Fab, V domains shown)
VH: B1 VH with N28H, V31L, E98P, W99Y, G100S
VL: B1 VL
Fold Increase of Mutant Kd Compared to MT4 Kd [7]: 3.15 fold
Kd [7]: 2 nM

B9: Fab H4H1-5 (Fab, V domains shown)
VH: B1 VH with N28H, V31I, H32M, E98P, W99Y, G100S
VL: B1 VL
Fold Increase of Mutant Kd Compared to MT4 Kd [7]: 2.57 fold
Kd [7]: 2.45 nM

B10: Fab H4L3-2 (Fab, V domains shown)
VH: B1 VH
VL: B1 VL with V89Q, A92W, S93P, S94F
Fold Increase of Mutant Kd Compared to MT4 Kd [8]: 45.3 fold
Kd [8]: 0.138 nM
Kd [6]: 0.138 nM

B11: Fab H4L3-4 (Fab, V domains shown)
VH: B1 VH
VL: B1 VL with V89K, A92G, S93G, S94T
Fold Increase of Mutant Kd Compared to MT4 Kd [8]: 25.7 fold
Kd [8]: 0.243 nM
Kd [6]: 0.243 nM

B12: Fab MT4 (Fab, V domains shown)
VH: B1 VH with T30V, V31I, E98P, W99Y, G100S
VL: B1 VL
notes: also called Fab 4; 4H (heavy chain)
IC50 (M^-1), syncytium neutralization assay, HIV-1 MN on CEM-SS cells [2]: 1.69e+08 M⁻¹
Neutralization Titer (ng/ml), syncytium assay, HIV-1 MN [2]: 296 ng/mL

B13: Fab 3b4 (Fab, V domains shown)
VH: LEQSGAEVKKPGASVKVSCQASGYRFSNYTLIWVRQAPGQRFEWMGWINPYNGNKEFSAKFQDRVTFTADTSANTAYMELRSLRSADTAVYYCARVGPWNWDSPQDNYYMDVWGKGTTVIVSS
VL: B1 VL
IC50 (M^-1), syncytium neutralization assay, HIV-1 MN on CEM-SS cells [2]: 2.57e+09 M⁻¹
Neutralization Titer (ng/ml), syncytium assay, HIV-1 MN [2]: 19.4 ng/mL

B14: Fab H4L3-3 (Fab, V domains shown)
VH: B1 VH
VL: ELTQSPGTLSLSPGERATFSCRSSHSIRSRRVAWYQHKPGQAPRLVIHGVSNRASGISDRFSGSGSGTDFTLTITRVEPEDFALYYCQVYGGSAYTFGQGTKLERK
Fold Increase of Mutant Kd Compared to MT4 Kd [8]: 1.9 fold
Kd [8]: 3.31 nM

B15: composite Fab H31/L42-1 (Fab, V domains shown)
VH: B1 VH with N28H, M45H, D102E, D103M, S104F, P105R, Q106Y
VL: B1 VL with S26Q, I27L, R28D, S29G, R30S, V89Q, A92W, S93P, S94F
notes: also called Fab of plasmid pPho-H31/L42-1 (ATCC 69691)
koff [9]: 1.75e-07 s⁻¹
kon [9]: 67300 M⁻¹ s⁻¹
Fold Increase of Mutant Kd Compared to MT4 Kd [10]: 2430 fold
Ka [10]: 3.85e+11 M⁻¹
Kd [10]: 0.00259 nM
half-life of binding [11]: 44.5 days
Kd [6]: 0.00259 nM
